Patent US20120316071A1 (published 2012)

Legend:
[1] = biological target: T1, rHuman Notch-1/Fc Chimera, CF (R&D Systems Cat#3647-TK) (human, UniProt P46531 19-526); experiment: ECL multispot (MSD) assay, spotted antigen; Fab 20.00 (head prints uM)
T1 construct: Bought recombinant protein; Fc part of the bought chimera not given

[2] = biological target: T2, rHuman ErbB2/Fc Chimera, CF (R&D Systems Cat#1129-ER) (human, UniProt P04626 23-652); experiment: as above
T2 construct: Bought recombinant protein; Fc part of the bought chimera not given

[3] = biological target: T3, rHuman IGF-1 sR, CF (R&D Systems Cat#391-GR) (human, UniProt P08069 31-932); experiment: as above
T3 construct: Bought soluble receptor; The column head prints only 'IGF-1'; also called insulin-like growth factor-1 soluble receptor

[4] = biological target: T4, rHuman CD44/Fc Chimera, CF (R&D Systems Cat#3660-CD) (human, UniProt P16070 21-220); experiment: as above
T4 construct: Bought recombinant protein; Fc part of the bought chimera not given

[5] = biological target: T5, Recombinant Human DLL4 (R&D Systems Cat#1506-D4/CF) (human, UniProt Q9NR61 27-524); experiment: as above
T5 construct: Bought recombinant protein; also called delta-like protein 4

[6] = biological target: T6, rHuman EGF R/Fc Chimera, CF (R&D Systems Cat#344-ER) (human, UniProt P00533 25-645); experiment: Multispot ECL (MSD) assay, antigen spotted on plate, Fab at 0.312 µM; blank spot 1977
T6 construct: Bought recombinant protein; also called epidermal growth factor receptor (EGF R); Fc part of the bought chimera not given

[7] = biological target: T7, rHuman P-Cadherin/Fc Chimera, CF (R&D Systems Cat#861-PC) (human, UniProt P22223 108-654); experiment: as above
T7 construct: Bought recombinant protein; Fc part of the bought chimera not given

[8] = biological target: T8, rHuman Notch-1/Fc Chimera, CF (R&D Systems Cat#3647-TK) (human, UniProt P46531 19-526); experiment: as above
T8 construct: Bought recombinant protein; Fc part of the bought chimera not given

[9] = biological target: T9, Recombinant Human DLL4 (R&D Systems Cat#1506-D4/CF) (human, UniProt Q9NR61 27-524); experiment: as above
T9 construct: Bought recombinant protein; also called delta-like protein 4; rHuman DLL4

[10] = biological target: T10, rHuman P-Cadherin/Fc Chimera, CF (R&D Systems Cat#861-PC) (human, UniProt P22223 108-654); experiment: MSD multispot ECL, antigen spotted on plate, Fab 22 nM; blank spot 289
T10 construct: Bought from R&D Systems; not shown: Fc of the bought chimera

[11] = biological target: T11, rHuman ErbB2/Fc Chimera, CF (R&D Systems Cat#1129-ER) (human, UniProt P04626 23-652); experiment: as above
T11 construct: Bought from R&D Systems; also called human epidermal growth factor 2 receptor (ErbB2); not shown: Fc of the bought chimera

[12] = biological target: T12, rHuman CD44/Fc Chimera, CF (R&D Systems Cat#3660-CD) (human, UniProt P16070 21-220); experiment: as above
T12 construct: Bought from R&D Systems; not shown: Fc of the bought chimera

[13] = biological target: T13, rHuman IGF-1 sR, (IGF-1 sR), CF (R&D Systems Cat#391-GR) (human, UniProt P08069 31-932); experiment: as above
T13 construct: Bought from R&D Systems and called a soluble receptor; also called insulin-like growth factor-1 soluble receptor

[14] = biological target: T14, rHuman Notch-1/Fc Chimera, CF (R&D Systems Cat#3647-TK) (human, UniProt P46531 19-526); experiment: as above
T14 construct: Bought from R&D Systems; not shown: Fc of the bought chimera

[15] = biological target: T15, rHuman EGF R/Fc Chimera, CF (R&D Systems Cat#344-ER) (human, UniProt P00533 25-645); experiment: as above
T15 construct: Bought from R&D Systems; also called epidermal growth factor receptor (EGF R); not shown: Fc of the bought chimera

[16] = biological target: T16, Recombinant Human DLL4 (R&D Systems Cat#1506-D4/CF) (human, UniProt Q9NR61 27-524); experiment: as above
T16 construct: Bought from R&D Systems; also called rHuman DLL4; delta-like protein 4

[17] = biological target: T17, rHuman Erythropoietin R/Fc Chimera, CF (R&D Systems Cat#963-ER) (human, UniProt P19235 25-250); experiment: as above
T17 construct: Bought from R&D Systems; also called EPO R/Fc; Epo R/Fc chimera; not shown: Fc of the bought chimera
T17 sequence (looked up): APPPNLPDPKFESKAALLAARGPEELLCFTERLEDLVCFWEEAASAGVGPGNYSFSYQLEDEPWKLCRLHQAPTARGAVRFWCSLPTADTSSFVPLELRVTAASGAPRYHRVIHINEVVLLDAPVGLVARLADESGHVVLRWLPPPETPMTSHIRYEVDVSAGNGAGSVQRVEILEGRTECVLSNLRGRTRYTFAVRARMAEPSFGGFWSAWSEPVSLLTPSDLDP

[18] = biological target: T18, rHuman HGF R/c-MET/Fc Chimera, CF (R&D Systems Cat#358-MT/CF) (human, UniProt P08581 25-932); experiment: as above
T18 construct: Bought from R&D Systems; also called HGF R/Fc; hepatocyte growth factor receptor (HGF R/c-Met); not shown: Fc of the bought chimera
T18 sequence (P08581 25-932, change not shown): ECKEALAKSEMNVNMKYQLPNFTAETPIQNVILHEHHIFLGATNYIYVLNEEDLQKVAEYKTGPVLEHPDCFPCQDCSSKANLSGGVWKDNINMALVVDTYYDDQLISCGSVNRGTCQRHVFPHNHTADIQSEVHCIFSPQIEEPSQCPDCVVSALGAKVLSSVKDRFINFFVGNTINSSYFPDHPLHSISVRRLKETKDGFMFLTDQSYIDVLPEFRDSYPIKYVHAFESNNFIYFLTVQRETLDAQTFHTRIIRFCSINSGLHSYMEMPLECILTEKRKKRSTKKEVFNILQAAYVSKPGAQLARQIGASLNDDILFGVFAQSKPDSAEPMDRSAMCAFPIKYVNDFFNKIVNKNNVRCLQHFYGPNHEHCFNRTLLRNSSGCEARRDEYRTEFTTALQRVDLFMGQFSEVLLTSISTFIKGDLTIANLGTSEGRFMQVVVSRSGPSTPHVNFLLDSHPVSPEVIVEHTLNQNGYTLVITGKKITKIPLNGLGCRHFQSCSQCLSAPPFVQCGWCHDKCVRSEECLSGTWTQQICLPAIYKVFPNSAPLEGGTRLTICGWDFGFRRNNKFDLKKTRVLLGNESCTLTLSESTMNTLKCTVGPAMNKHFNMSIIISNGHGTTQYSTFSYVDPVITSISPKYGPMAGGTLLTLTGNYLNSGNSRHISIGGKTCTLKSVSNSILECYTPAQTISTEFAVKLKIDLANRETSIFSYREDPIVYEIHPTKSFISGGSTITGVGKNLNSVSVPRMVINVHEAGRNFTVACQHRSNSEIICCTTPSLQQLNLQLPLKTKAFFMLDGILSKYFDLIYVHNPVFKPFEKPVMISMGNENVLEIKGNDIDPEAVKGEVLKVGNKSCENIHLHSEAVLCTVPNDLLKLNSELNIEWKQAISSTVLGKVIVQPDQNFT

B1: Fab VH5-51_IGHD5-18*01>3_IGHJ4*01 G100K/G104T & V3-4_IGLJ1*01 (Fab, V domains shown)
VH: EVQLVQSGAEVKKPGESLKISCKGSGYSFTSYWIGWVRQMPGKGLEWMGIIYPGDSDTRYSPSFQGQVTISADKSISTAYLQWSSLKASDTAMYYCARRKYSYTYDYFDYWGQGTLVTVSS
VL: QTVVTQEPSFSVSPGGTVTLTCGLSSGSVSTSYYPSWYQQTPGQAPRTLIYSTNTRSSGVPDRFSGSILGNKAALTITGAQADDESDYYCVLYMGSGISYVFGTGTKVTVL
notes: Tested as a Fab; The constant parts are the same as for the parent Fab (CH1 with His6/Flag tags, lambda CL); also called KT double mutant; H:KT
How did the ECL signal/noise ratio [1] turn out when B1 was run?
Its ECL signal/noise ratio is 1.2.

And the ECL signal/noise ratio [2]?
Its ECL signal/noise ratio is 1.2.

What about the ECL signal/noise ratio [3] of the same binder?
Its ECL signal/noise ratio is 1.1.

What about the ECL signal/noise ratio [4] of the same binder?
The ECL signal/noise ratio was 1.1.

And the ECL signal/noise ratio [5]?
The ECL signal/noise ratio was 157.

B2: Fab VH1-46_IGHD7-27*01_IGHJ2*01 & L6_IGKJ1*01 (Fab, V domains shown)
VH: QVQLVQSGAEVKKPGASVKVSCKASGYTFTSYYMHWVRQAPGQGLEWMGIINPSGGSTSYAQKFQGRVTMTRDTSTSTVYMELSSLRSEDTAVYYCARANWGYWYFDLWGRGTLVTVSS
VL: not shown
notes: Germline Fab made in E. coli; VH was cloned in Plasmid A (CH1 constant region, His6 and Flag tags) and the kappa VL in Plasmid C (kappa CL); Only the variable domains are tied to this Fab by name
With B2 as the binder, how does the ECL signal [6] read?
The ECL signal was 4330.

And the ECL signal [7]?
Its ECL signal is 7100.

What about the ECL signal [8] of the same binder?
Its ECL signal is 4460.

What about the ECL signal [9] of the same binder?
The ECL signal was 5480.

B3: Fab VH1-46_IGHD3-10*01_IGHJ4*01 & B3_IGKJ1*01 (Fab, V domains shown)
VH: QVQLVQSGAEVKKPGASVKVSCKASGYTFTSYYMHWVRQAPGQGLEWMGIINPSGGSTSYAQKFQGRVTMTRDTSTSTVYMELSSLRSEDTAVYYCAREYYYGSGSYYNDYFDYWGQGTLVTVSS
VL: not shown
notes: Tested as a Fab made in E. coli; VH was cloned into Plasmid A (CH1 constant region, His6 and Flag tags); The kappa VL was cloned into Plasmid C (kappa CL)
What does the source list for B3?
ECL signal [10]: 215; ECL signal [11]: 363; ECL signal [12]: 317; ECL signal [13]: 347; ECL signal [14]: 389; ECL signal [15]: 312; ECL signal [16]: 342; ECL signal [17]: 2240; ECL signal [18]: 203
